Data published in publication PMC7721913.

Target: HA-SFPQ (human) (UniProt P23246)
Experiment: co-IP

Chain of HA-SFPQ (human) (P23246 whole entry): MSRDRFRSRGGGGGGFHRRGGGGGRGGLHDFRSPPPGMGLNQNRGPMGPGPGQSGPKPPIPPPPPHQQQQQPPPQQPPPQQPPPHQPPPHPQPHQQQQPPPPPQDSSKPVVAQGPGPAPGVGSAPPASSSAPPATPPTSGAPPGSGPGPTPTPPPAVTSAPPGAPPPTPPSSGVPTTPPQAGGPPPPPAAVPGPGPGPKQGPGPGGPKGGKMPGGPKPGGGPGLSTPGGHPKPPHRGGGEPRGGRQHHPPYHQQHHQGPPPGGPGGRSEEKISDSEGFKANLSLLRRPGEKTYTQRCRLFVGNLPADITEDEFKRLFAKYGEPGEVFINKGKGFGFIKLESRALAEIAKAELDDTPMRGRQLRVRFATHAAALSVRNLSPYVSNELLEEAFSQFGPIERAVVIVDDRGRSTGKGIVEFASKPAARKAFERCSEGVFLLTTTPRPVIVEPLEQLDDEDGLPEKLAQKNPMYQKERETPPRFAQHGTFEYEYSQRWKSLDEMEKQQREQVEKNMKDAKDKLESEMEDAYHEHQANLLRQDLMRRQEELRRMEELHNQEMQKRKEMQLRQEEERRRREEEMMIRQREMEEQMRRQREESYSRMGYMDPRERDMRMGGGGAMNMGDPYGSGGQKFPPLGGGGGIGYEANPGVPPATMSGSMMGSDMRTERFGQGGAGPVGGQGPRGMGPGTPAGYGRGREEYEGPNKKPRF
Chain of Myc-KLC1 ΔTail (domain or fragment) (O88447 whole entry, stated change not applied, the tested form may be a part): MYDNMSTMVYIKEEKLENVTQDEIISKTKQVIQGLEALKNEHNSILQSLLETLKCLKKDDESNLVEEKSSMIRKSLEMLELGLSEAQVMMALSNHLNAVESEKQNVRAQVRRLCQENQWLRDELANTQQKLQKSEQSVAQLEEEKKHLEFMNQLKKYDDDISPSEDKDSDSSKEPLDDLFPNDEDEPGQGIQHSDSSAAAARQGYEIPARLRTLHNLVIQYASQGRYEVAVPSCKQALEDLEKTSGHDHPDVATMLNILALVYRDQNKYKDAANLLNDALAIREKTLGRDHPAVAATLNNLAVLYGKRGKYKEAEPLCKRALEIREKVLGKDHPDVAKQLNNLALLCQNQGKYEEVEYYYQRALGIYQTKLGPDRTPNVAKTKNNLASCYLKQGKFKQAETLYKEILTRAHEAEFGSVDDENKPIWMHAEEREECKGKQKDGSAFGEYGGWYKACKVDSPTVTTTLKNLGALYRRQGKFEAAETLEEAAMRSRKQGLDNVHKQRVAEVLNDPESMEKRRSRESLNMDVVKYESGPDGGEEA

reduction of binding against WT KLC1: 50%
Substance: Myc-KLC1 ΔTail (domain or fragment)
